# Laboratory results as given in patent publication US20230322924A1 (Janssen / Centocor, published 2023).
# Experiments:
# Human CD33 ECD-HSA [1] = target: T1, Human CD33 ECD-HSA (human); test: ProteOn SPR, mAb captured on anti-human Fc, antigen as analyte
# T1 construct: CD33 ECD fused at the C-terminus to monomeric HSA (C58S) and a six-histidine tag; also called C33W2; huCD33 ECD-HSA
# Protocol: (§1) The panel of mAbs was then further characterized for full affinity analysis as well as epitope binning. The binding of anti-CD33 mAbs to recombinant human CD33 ECD-HSA (C33W2) and cyno CD33 ECD-HSA (C33W1) was measured by ProteOn SPR (Bio-Rad). […] Different mAbs were captured on the anti-human Fc IgG surface at 0.25 or 0.5 μg/ml (160-300 RU) in vertical ligand orientation, with the 6th ligand channel as no ligand surface control. Human and cyno CD33-HSA proteins at 0.3 μM concentration in 3-fold dilution series of 5 concentrations flew in as analyte to bind to captured mAbs in the horizontal orientation. A buffer sample was also injected in the 6th channel to monitor the dissociation of captured mAb and baseline stability. […] The raw biding data were processed by double referencing after subtracting the response data from: 1) the inter-spot to correct for the non-specific interactions between the Ag and the empty chip surface; 2) the buffer channel to correct for baseline drifting due to the dissociation of captured mAb surface over time. The processed data at all antigen concentrations for each mAb were globally fit to a 1:1 simple Langmuir binding model to extract estimates of the kinetic (kₒₙ, koff) and affinity (Kd) constants.
# Cyno CD33 ECD-HSA [2] = target: T2, Cyno CD33 ECD-HSA (cynomolgus monkey); test: as above
# T2 construct: Cyno CD33 ECD fused to HSA and a six-histidine tag; also called C33W1
# Protocol: as §1
# Human CD33 full length = target: T3, Human CD33 full length (human, UniProt P20138 18-364); test: flow cytometry on HEK293F cells expressing human CD33
# T3 construct: also called huCD33
# Protocol: (§2) The purified antibodies were assessed for binding to stably transfected HEK293F cells expressing human CD33 or cyno CD33 (generation described above) along with the parental HEK293F as negative control. Cells were harvested from tissue culture flasks using non-enzymatic dissociation buffer (Thermo Scientific). The flasks were rinsed twice with PBS and dissociation buffer was added to the flask, and the flask was incubated for 10 minutes at 37° C. until the cells became non-adherent. The cells were centrifuged at 300 g for 5 minutes and resuspended at 1.0×10⁶ cells/ml in staining buffer (Becton Dickinson; Franklin Lakes, NJ). 50,000 cells/well of each cell type was plated in 50 μl of staining buffer in round bottom plates (Becton Dickinson). […] 100 μl staining buffer was added to all wells of each plate, the plates were spun at 300 g for 5 min, the buffer was removed, 200 μl staining buffer was added to all wells of each plate, the plates were spun at 300 g for 5 min, and the buffer was removed. 50 μl of 2 μg/ml of Goat-anti-human Fc AF647 secondary antibody (Jackson Immunoresearch; West Grove, PA) was added to all wells of the plates, and the plates were incubated for 30 min at 4° C. 100 μl staining buffer was added to all wells of the plates, the plates were spun at 300 g for 5 min, and the buffer was removed. 200 μl running buffer (running buffer is Staining buffer, 1 mM EDTA, 0.1% Pluronic Acid) was added to all wells of the plates, the plates were spun at 300 g for 5 min, and the buffer was removed. 30 μl running buffer containing Sytox Green live/dead dye (ThermoFisher) was added to all wells with cells and the plates were read on an iQue IntelliCyt flow cytometer. Cells were gated on forward vs. side scatter to eliminate debris, then on singlets and then on live cells which excluded the Sytox stain. Antibody binding was assessed by the mean fluorescence intensity in the AF647 channel.
# (§3) The OmniMouse panel (8 mAbs total) was generated separately and characterized further for binding to cells.
# Cyno CD33 full length = target: T4, Cyno CD33 full length (cynomolgus monkey); test: flow cytometry on HEK293F cells expressing cyno CD33
# T4 construct: also called cyCD33
# Protocol: as §2, §3
# [3] = target: T5, Human CD33 full length, expressed on HEK293F cells (human, UniProt P20138 18-364); test: flow cytometry, HEK293F cells expressing human CD33
# T5 construct: HEK293F cells transduced with lentivirus containing full length human CD33; also called huCD33
# [4] = target: T6, Cyno CD33 full length, expressed on HEK293F cells (cynomolgus monkey); test: flow cytometry, HEK293F cells expressing cyno CD33
# T6 construct: HEK293F cells transduced with lentivirus containing full length cyno CD33 (Genbank XP_005590138.1); also called cyCD33
# Human CD33 ECD-HSA [5] = target: Human CD33 ECD-HSA (human); test: SPRi off-rate screen (IBIS MX96), mAb captured by anti-human Fc; column head prints KD
# Cyno CD33 ECD-HSA [6] = target: T7, Cyno CD33 ECD-HSA (cynomolgus monkey); test: SPRi off-rate screen (IBIS MX96), mAb captured by anti-human Fc; column head prints Cyno CD33 binding KD
# T7 construct: Cyno CD33 extracellular domain fused to monomeric human serum albumin and a six-histidine tag; also called C33W1
# Cyno CD33 ECD-HSA [7] = target: T7, Cyno CD33 ECD-HSA; test: ProteOn SPR, mAb captured by anti-human Fc, 1:1 Langmuir fit
# Human CD33 ECD-HSA [8] = target: Human CD33 ECD-HSA (human); test: as above
# T5 sequence (P20138 18-364 limits assumed): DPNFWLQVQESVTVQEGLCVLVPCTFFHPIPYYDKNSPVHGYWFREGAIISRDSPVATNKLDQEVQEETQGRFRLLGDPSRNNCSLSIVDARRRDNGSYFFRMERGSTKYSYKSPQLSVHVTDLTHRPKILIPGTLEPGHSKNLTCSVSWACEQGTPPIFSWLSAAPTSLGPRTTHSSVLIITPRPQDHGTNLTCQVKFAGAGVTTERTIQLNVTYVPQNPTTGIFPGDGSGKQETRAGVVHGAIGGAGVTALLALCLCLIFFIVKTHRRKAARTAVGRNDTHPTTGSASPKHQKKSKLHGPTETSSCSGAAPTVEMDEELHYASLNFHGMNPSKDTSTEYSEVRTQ
# T3 sequence (P20138 18-364 limits assumed): as above
Binder,Kd (Human CD33 ECD-HSA [1]),koff (Human CD33 ECD-HSA [1]),kon (Human CD33 ECD-HSA [1]),Kd (Cyno CD33 ECD-HSA [2]),koff (Cyno CD33 ECD-HSA [2]),kon (Cyno CD33 ECD-HSA [2]),MFI at 0 nM (background) (Human CD33 full length),MFI at 0.6 nM (Human CD33 full length),MFI at 6 nM (Human CD33 full length),MFI at 60 nM (Human CD33 full length),MFI at 0 nM (background) (Cyno CD33 full length),MFI at 0.6 nM (Cyno CD33 full length),MFI at 6 nM (Cyno CD33 full length),MFI at 60 nM (Cyno CD33 full length),other results
"C33B911 (antibody, V domains shown, OMNIMouse-derived anti-CD33 mAb; same V regions as C33B903; also called C33H251/C33L117; C33F549) VH: EVQLVESGGGLVQPGRSLRLSCAASGFTFDDYAMHWVRQAPGKGLEWVSGIGWSGGSIVYADSVKGRFKISRDNAKNSLYLQMNSLRAEDTALYYCAKDSPYGDFFDYWGQGTLVTVSS VL: not shown",0.0378 nM,4.14e-05 s⁻¹,1.1e+06 M⁻¹ s⁻¹,1 nM,0.00115 s⁻¹,1.15e+06 M⁻¹ s⁻¹,114 MFI,13500 MFI,100000 MFI,238000 MFI,97.9 MFI,1940 MFI,7730 MFI,17000 MFI,
"C33B913 (antibody, V domains shown, OMNIMouse-derived anti-CD33 mAb; same V regions as C33B905; also called C33H253/C33L119; C33F551) VH: EVQLLESGGGLVQPGGSLKLSCTASGFTFRSYAMSWVRQAPGKGLEWVSAINGYGDGRYYADSVKGRFTISRDNSKNTLYLQMNSLRAEDTAVYSCAKDQGFGELFFDYWGQGTLVTVSS VL: not shown",0.969 nM,0.00064 s⁻¹,660000 M⁻¹ s⁻¹,0.12 nM,0.000308 s⁻¹,2.56e+06 M⁻¹ s⁻¹,128 MFI,205000 MFI,409000 MFI,519000 MFI,106 MFI,35200 MFI,36900 MFI,40700 MFI,
"C33B80 (antibody, IgG1, V domains shown, huIgG1 F405L; also called C33F85; C33H76/C33L39) VH: EVQLLESGGGLVQPGGSLRLSCAASGFTFNYAMSWVRQAPGKGLEWVSAISGSGGSTYYADSVKGRFTISRDISKNTLYLQMNSLRAEDTAVYYCARTYNSGYYDGDFDYWGQGTLVTVSS VL: QSALTQPASVSGSPGQSIPISSTGTSSDDGKNNIVSWYQQHPGKAPKLMIYKDSKRPSGVSNRFSGSKSGNTASLTISGLQADDEADYHCCSYAGASNHVVFGGGTKLTVL",,,,,,,,,,,,,,,MFI at 0 nM mAb (background) [3]: 88.9 MFI; MFI at 0.6 nM mAb [3]: 115 MFI; MFI at 6 nM mAb [3]: 410 MFI; MFI at 60 nM mAb [3]: 5800 MFI; MFI at 0 nM mAb (background) [4]: 82.4 MFI; MFI at 0.6 nM mAb [4]: 109 MFI; MFI at 6 nM mAb [4]: 249 MFI; MFI at 60 nM mAb [4]: 4610 MFI; koff (Human CD33 ECD-HSA [5]): 0.000384 s⁻¹; koff (Cyno CD33 ECD-HSA [6]): 0.000266 s⁻¹; Kd (Cyno CD33 ECD-HSA [7]): 0.527 nM; koff (Cyno CD33 ECD-HSA [7]): 0.000259 s⁻¹; kon (Cyno CD33 ECD-HSA [7]): 492000 M⁻¹ s⁻¹; Kd (Human CD33 ECD-HSA [8]): 1.32 nM; koff (Human CD33 ECD-HSA [8]): 0.000425 s⁻¹; kon (Human CD33 ECD-HSA [8]): 323000 M⁻¹ s⁻¹
"C33B914 (antibody, V domains shown, OMNIMouse-derived anti-CD33 mAb; same V regions as C33B906; also called C33H254/C33L120; C33F552) VH: QVQLVESGGGVVQPGRSLRLSCAASGFTFSYYGMHWVRQAPDKGLEWVAVIWFDGNNKYYADSVKGRFTISRDNSKNTLYLQMNSLRAEDTAVYYCARDRELLFDYWGQGTLVTVSS VL: SYELTQPPSVSVSPGQTASITCSGDELGDMYACWYQQKPGQSPLVVIYQDSKRPSGIPERFSGSNSGNTATLTISGTQAMDEAAYYCQTWDTRIAVFGGGTNLTVL",22.1 nM,0.0098 s⁻¹,444000 M⁻¹ s⁻¹,0.44 nM,0.000233 s⁻¹,529000 M⁻¹ s⁻¹,185 MFI,153000 MFI,315000 MFI,304000 MFI,86.8 MFI,22100 MFI,33400 MFI,45000 MFI,
